Among the data in patent US20210230570A1 (published 2021) are KD-WT/KD-mut values, retold here.

The assay has as its target T1, Factor VIIIa (recombinant FVIII, Kogenate FS, Bayer healthcare, activated with alpha-thrombin) (UniProt P00451 20-2351, limits assumed).
T1 construct: also called FVIIIa; cofactor
T1 sequence (looked up): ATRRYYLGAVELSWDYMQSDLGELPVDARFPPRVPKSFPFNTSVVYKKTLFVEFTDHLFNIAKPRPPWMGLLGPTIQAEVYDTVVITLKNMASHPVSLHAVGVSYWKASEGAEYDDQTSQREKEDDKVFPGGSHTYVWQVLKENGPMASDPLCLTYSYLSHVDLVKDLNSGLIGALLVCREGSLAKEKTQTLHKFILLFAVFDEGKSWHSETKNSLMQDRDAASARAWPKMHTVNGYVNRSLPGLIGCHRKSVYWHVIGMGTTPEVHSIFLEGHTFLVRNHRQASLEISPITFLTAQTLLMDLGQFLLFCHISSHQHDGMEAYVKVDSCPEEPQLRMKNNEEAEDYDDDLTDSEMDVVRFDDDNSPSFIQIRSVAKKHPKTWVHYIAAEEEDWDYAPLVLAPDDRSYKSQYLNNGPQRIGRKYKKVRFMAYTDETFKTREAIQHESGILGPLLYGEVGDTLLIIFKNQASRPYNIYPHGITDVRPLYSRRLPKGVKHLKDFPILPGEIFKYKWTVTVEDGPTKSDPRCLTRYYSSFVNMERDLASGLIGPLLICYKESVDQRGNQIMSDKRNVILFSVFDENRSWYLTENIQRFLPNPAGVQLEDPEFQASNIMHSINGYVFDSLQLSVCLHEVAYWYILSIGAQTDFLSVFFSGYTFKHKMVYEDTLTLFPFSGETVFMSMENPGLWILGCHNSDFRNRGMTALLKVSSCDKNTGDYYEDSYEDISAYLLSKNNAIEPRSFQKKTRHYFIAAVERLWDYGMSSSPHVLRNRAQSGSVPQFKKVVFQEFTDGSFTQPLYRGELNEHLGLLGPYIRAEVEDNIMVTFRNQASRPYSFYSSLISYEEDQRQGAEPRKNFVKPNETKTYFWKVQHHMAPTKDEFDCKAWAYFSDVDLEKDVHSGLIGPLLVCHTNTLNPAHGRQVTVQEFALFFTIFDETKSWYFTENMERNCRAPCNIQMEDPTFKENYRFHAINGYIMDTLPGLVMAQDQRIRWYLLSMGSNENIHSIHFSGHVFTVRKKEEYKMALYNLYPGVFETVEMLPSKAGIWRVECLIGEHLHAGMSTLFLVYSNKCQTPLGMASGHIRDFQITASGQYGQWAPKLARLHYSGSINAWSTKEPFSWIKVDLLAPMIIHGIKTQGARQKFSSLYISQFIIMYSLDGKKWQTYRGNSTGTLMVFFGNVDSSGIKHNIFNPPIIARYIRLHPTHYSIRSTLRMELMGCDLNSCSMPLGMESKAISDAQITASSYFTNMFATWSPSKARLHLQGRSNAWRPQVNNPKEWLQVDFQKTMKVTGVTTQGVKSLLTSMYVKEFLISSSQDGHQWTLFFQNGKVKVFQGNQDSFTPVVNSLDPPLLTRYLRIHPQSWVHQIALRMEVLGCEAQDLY
Nature of the assay: same assay; KD-app of Catalyst Biosciences WT FIXa divided by KD-app of the variant. On the procedure: The molar concentration of FVIII was then determined by absorbance at 280 nm using an extinction coefficient of 1.567 mg⁻¹ mL cm⁻¹ and a molecular weight of 163.6 kDa.

Where a chain is given by its changes, count along the chain named. Names may count otherwise.

B1: FIXa-A103N/N105S/K247N/N249S/R318Y/R338E/R403E/E410N (enzyme)
chain 1: YNSGKLEEFVQGNLERECMEEKCSFEEAREVFENTERTTEFWKQYVDGDQCESNPCLNGGSCKDDINSYECWCPFGFEGKNCELDVTCNIKNGRCEQFCKNSNDSKVVCSCTEGYRLAENQKSCEPAVPFPCGRVSVSQTSKLTR
chain 2: VVGGEDAKPGQFPWQVVLNGKVDAFCGGSIVNEKWIVTAAHCVETGVKITVVAGEHNIEETEHTEQNRSVIRIIPHHNYNAAINKYNHDIALLELDEPLVLNSYVTPICIADKEYTNIFLKFGSGYVSGWGRVFHKGYSALVLQYLRVPLVDRATCLESTKFTIYNNMFCAGFHEGGRDSCQGDSGGPHVTEVEGTSFLTGIISWGEECAMKGKYGIYTKVSEYVNWIKNKTKLT
Turning to B1, the KD-WT/KD-mut is 1 ratio.

B2: FIXa-R318Y/R338E/E410N/T412V (enzyme)
chain 1: B1 chain 1 with N103A, S105N
chain 2: B1 chain 2 with N67K, S69N, E223R, T232V
notes: also called R150Y/R170E/E240N/T242V (chymotrypsin numbering)
Turning to B2, the KD-WT/KD-mut was found to be 10.7 ratio.

B3: FIXa-R318Y/R338E/N346D/R403E/E410N (enzyme)
chain 1: B1 chain 1 with N103A, S105N
chain 2: B1 chain 2 with N67K, S69N, N166D
notes: also called R150Y/R170E/N178D/R233E/E240N (chymotrypsin numbering)
For B3, the KD-WT/KD-mut was found to be 0.9 ratio.

B4: FIXa-K228N/K247N/N249S/R318Y/R338E/R403E/E410N (enzyme)
chain 1: B1 chain 1 with N103A, S105N
chain 2: B1 chain 2 with K48N
notes: also called K63N/K82N/N84S/R150Y/R170E/R233E/E240N (chymotrypsin numbering)
Take B4: the KD-WT/KD-mut worked out at 0.9 ratio.

B5: FIXa-R318Y/R338E/T343R/N346Y/R403E/E410N (enzyme)
chain 1: B1 chain 1 with N103A, S105N
chain 2: B1 chain 2 with N67K, S69N, T163R, N166Y
notes: also called R150Y/R170E/T175R/N178Y/R233E/E240N (chymotrypsin numbering)
As to B5, the KD-WT/KD-mut was determined as 6.1 ratio.

B6: FIXa-Y155F/K247N/N249S/N260S (enzyme)
chain 1: B1 chain 1 with N103A, S105N
chain 2: B1 chain 2 with N80S, Y138R, E158R, E223R, N230E
In the case of B6, the KD-WT/KD-mut was 0.6 ratio.

B7: FIXa-R318Y/R338E/R403E/E410S (enzyme)
chain 1: B1 chain 1 with N103A, S105N
chain 2: B1 chain 2 with N67K, S69N, N230S
notes: also called R150Y/R170E/R233E/E240S (chymotrypsin numbering)
Regarding B7, the KD-WT/KD-mut is 1.8 ratio.

B8: FIXa-R318Y/R338E/R403E/E410N/T412V (enzyme)
chain 1: B1 chain 1 with N103A, S105N
chain 2: B1 chain 2 with N67K, S69N, T232V
notes: also called R150Y/R170E/R233E/E240N/T242V (chymotrypsin numbering)
Regarding B8, the KD-WT/KD-mut was 1.7 ratio.

B9: FIXa-R318Y/R338E/N346Y/R403E/E410N (enzyme)
chain 1: B1 chain 1 with N103A, S105N
chain 2: B1 chain 2 with N67K, S69N, N166Y
notes: also called R150Y/R170E/N178Y/R233E/E240N (chymotrypsin numbering)
As to B9, the KD-WT/KD-mut is 2.4 ratio.

B10: FIXa-K228N/K247N/N249S (enzyme)
chain 1: B1 chain 1 with N103A, S105N
chain 2: B1 chain 2 with K48N, Y138R, E158R, E223R, N230E
notes: also called K63N/K82N/N84S (chymotrypsin numbering)
With B10, the KD-WT/KD-mut came out at 0.8 ratio.

B11: FIXa-Y155F/K228N/R318Y/R338E/R403E/E410N (enzyme)
chain 1: B1 chain 1 with N103A, S105N
chain 2: B1 chain 2 with K48N, N67K, S69N
In the case of B11, the KD-WT/KD-mut worked out at 3.1 ratio.

B12: FIXa-D104N/K106S/K247N/N249S/R318Y/R338E/R403E/E410N (enzyme)
chain 1: B1 chain 1 with N103A, D104N, S105N, K106S
chain 2: B1 chain 2
B12: the KD-WT/KD-mut was determined as 1.1 ratio.

B13: FIXa-I251S/R318Y/R338E/R403E/E410N (enzyme)
chain 1: B1 chain 1 with N103A, S105N
chain 2: B1 chain 2 with N67K, S69N, I71S
notes: also called I86S/R150Y/R170E/R233E/E240N (chymotrypsin numbering)
As to B13, the KD-WT/KD-mut is 1.5 ratio.

B14: FIXa-K247N/N249S/N260S/R318Y/R338E/R403E/E410N (enzyme)
chain 1: B1 chain 1 with N103A, S105N
chain 2: B1 chain 2 with N80S
notes: also called K82N/N84S/N95S/R150Y/R170E/R233E/E240N (chymotrypsin numbering)
On to B14, for which the KD-WT/KD-mut is 1.5 ratio.

B15: FIXa-R318Y/R338E/T343R/N346D/R403E/E410N (enzyme)
chain 1: B1 chain 1 with N103A, S105N
chain 2: B1 chain 2 with N67K, S69N, T163R, N166D
notes: also called R150Y/R170E/T175R/N178D/R233E/E240N (chymotrypsin numbering)
Take B15: the KD-WT/KD-mut amounted to 1.3 ratio.

B16: FIXa-Y259F/K265T/Y345T (enzyme)
chain 1: B1 chain 1 with N103A, S105N
chain 2: B1 chain 2 with N67K, S69N, Y79F, K85T, Y138R, E158R, Y165T, E223R, N230E
notes: also called Y94F/K98T/Y177T (chymotrypsin numbering)
For B16, the KD-WT/KD-mut stood at 0.8 ratio.

B17: FIXa-D104N/K106S/I251S/R318Y/R338E/R403E/E410N (enzyme)
chain 1: B1 chain 1 with N103A, D104N, S105N, K106S
chain 2: B1 chain 2 with N67K, S69N, I71S
As for B17, the KD-WT/KD-mut is 1.7 ratio.

B18: FIXa-R318Y/R338E/E410S (enzyme)
chain 1: B1 chain 1 with N103A, S105N
chain 2: B1 chain 2 with N67K, S69N, E223R, N230S
notes: also called R150Y/R170E/E240S (chymotrypsin numbering)
For the molecule B18, the KD-WT/KD-mut came to 14.1 ratio.

B19: FIXa-Y155F/K247N/N249S/R318Y/R338E/E410N (enzyme)
chain 1: B1 chain 1 with N103A, S105N
chain 2: B1 chain 2 with E223R
For the molecule B19, the KD-WT/KD-mut is 12.8 ratio.

B20: FIXa-I251S/R318Y/R338E/E410N (enzyme)
chain 1: B1 chain 1 with N103A, S105N
chain 2: B1 chain 2 with N67K, S69N, I71S, E223R
notes: also called I251S/R318Y/E410N/R338E; I86S/R150Y/R170E/E240N (chymotrypsin numbering)
As for B20, the KD-WT/KD-mut was 16.7 ratio.

B21: FIXa-R318Y/R338E/T343R/R403E/E410N (enzyme)
chain 1: B1 chain 1 with N103A, S105N
chain 2: B1 chain 2 with N67K, S69N, T163R
notes: also called R150Y/R170E/T175R/R233E/E240N (chymotrypsin numbering)
Regarding B21, the KD-WT/KD-mut worked out at 6.6 ratio.

B22: FIXa-K247N/N249S/N260S (enzyme)
chain 1: B1 chain 1 with N103A, S105N
chain 2: B1 chain 2 with N80S, Y138R, E158R, E223R, N230E
notes: also called K82N/N84S/N95S (chymotrypsin numbering)
As to B22, the KD-WT/KD-mut was determined as 0.6 ratio.

B23: FIXa-D104N/K106S/I251S/R318Y/R338E/E410N (enzyme)
chain 1: B1 chain 1 with N103A, D104N, S105N, K106S
chain 2: B1 chain 2 with N67K, S69N, I71S, E223R
With B23, the KD-WT/KD-mut is 7.7 ratio.
